Experimental data as given in patent publication US20100279930A1 (published 2010).
Where a chain is given by its changes, count along the chain named.

B1: 4061081 (peptide)
chain: PAPLEPTYPGDNATPEQKAKYAAELRRYIDKLTRPRY
B2: 4060278 (peptide)
chain: B1 chain with T7E, E24A, D30N, K31R
B3: 4061087 (peptide)
chain: B1 chain with T7V, K31H
B4: 4061085 (peptide)
chain: B1 chain with T7V
B5: 4060275 (peptide)
chain: B1 chain with T7E, E24A, D30N, K31H
B6: 4060897 (peptide)
chain: B1 chain with P1G, T7V, K18L
B7: 4060893 (peptide)
chain: B1 chain with T7K, K18L
B8: 4061091 (peptide)
chain: B1 chain with T7V, K31R
B9: 4061084 (peptide)
chain: B1 chain with P1G, T7V
B10: 4060280 (peptide)
chain: B1 chain with A22Y, A23S, D30N
B11: 4060283 (peptide)
chain: GAPLEPTYPGDNATPEQLAKYYSELRRYINKLTRPRF
B12: 4060605 (peptide)
chain: B11 chain with G1P, T7K, N30D, F37Y
B13: 4060277 (peptide)
chain: B11 chain with G1P, K31R, F37Y
B14: 4060276 (peptide)
chain: B11 chain with K31R, F37Y
B15: 4060315 (peptide)
chain: B11 chain with Q17E, F37Y
B16: 4060603 (peptide)
chain: PAPLEPKYPGDNATPEQMAKYYSELRRYIDRLTRPRY
B17: 4061082 (peptide)
chain: B1 chain with P1A
B18: 4060691 (peptide)
chain: B11 chain with T7E, Y8A, L18M, F37Y
B19: 4060602 (peptide)
chain: B16 chain with R31H
B20: 4060306 (peptide)
chain: B11 chain with N12D, K31H, F37Y
B21: 4060606 (peptide)
chain: B11 chain with N30D, F37Y
B22: 4061080 (peptide)
chain: B1 chain with P1G
B23: 4061083 (peptide)
chain: B1 chain with P1Y
B24: 4060680 (peptide)
chain: B16 chain with Y8A, R31K
B25: 4060895 (peptide)
chain: B16 chain with K7H, Q17E, R31K
B26: 4060316 (peptide)
chain: B11 chain with G1P, Q17E, F37Y
B27: 4060314 (peptide)
chain: B11 chain with G1P, N12D, F37Y
B28: 4060894 (peptide)
chain: B16 chain with Q17E, R31K
B29: 4060313 (peptide)
chain: B11 chain with N12D, F37Y
B30: 4060284 (peptide)
chain: B11 chain with G1P
B31: 4060279 (peptide)
chain: B11 chain with L18K, F37Y
B32: 4060693 (peptide)
chain: B16 chain with P1G, K7E, Y8A, R31K
B33: 4060604 (peptide)
chain: B16 chain with P1G, K7V, K20R, R31K
B34: 4060690 (peptide)
chain: GAPLEPVAPGDNATPEQMARYYSELRRYIDKLTRPRY
B35: 4060356 (peptide)
chain: GAPLEPEYPGDNATPEQLARYAAALRRYINKLTRPRY
B36: 4060359 (peptide)
chain: B35 chain with Q17E, L18M
B37: 4060896 (peptide)
chain: B35 chain with L18M, R20K, N30D
B38: 4060309 (peptide)
chain: B35 chain with L18K
B39: 4060601 (peptide)
chain: B35 chain with L18K, R20K, N30D
B40: 4060312 (peptide)
chain: B35 chain with N12D, L18K, K31H
B41: 4060694 (peptide)
chain: B35 chain with G1A, E7T, Y8A, L18M
B42: 4060311 (peptide)
chain: B35 chain with N12D, L18K
B43: 4060301 (peptide)
chain: B35 chain with L18K, R20K, K31R
B44: 4060358 (peptide)
chain: B35 chain with L18M, K31H
B45: 4060695 (peptide)
chain: B35 chain with G1A, E7T, L18M, N30D
B46: 4060899 (peptide)
chain: PLEPVYPGDNATPEQLAKYAAELRRYIDKLTRPRY
B47: 4060686 (peptide)
chain: AAPLEPEYPGDDATPQQKARYAAELRRYINKLTRPRY
B48: 4060682 (peptide)
chain: B47 chain with A1Y, N30D
B49: 4060685 (peptide)
chain: B47 chain with A1P
B50: 4060684 (peptide)
chain: B47 chain with A1G
B51: 4060681 (peptide)
chain: B47 chain with A1Y, Y8A
B52: 4061086 (peptide)
chain: B1 chain with P1G, T7V, K31H
B53: 4061090 (peptide)
chain: B1 chain with P1G, T7V, K31R
B54: 4060308 (peptide)
chain: GAPLEPTYPGDDATPEQLAKYAAELRRYINHLTRPRY
B55: 4060696 (peptide)
chain: B1 chain with P1A, T7K, K18L
B56: 4060687 (peptide)
chain: B1 chain with T7H, Q17E, K18M
B57: 4057144 (peptide)
chain: B1 chain with T7V, K18I, E24D, D30N
B58: 4057231 (peptide)
chain: B1 chain with T7H, K18M, E24D, D30N
B59: 4057141 (peptide)
chain: B47 chain with K18M, R20H
B60: 4057137 (peptide)
chain: B47 chain with A1H, K18M

The binders below were run against T1, human Y4 receptor (human, UniProt P50391 1-375) (assay: 125I-PP displacement).
T1 sequence (P50391 whole entry): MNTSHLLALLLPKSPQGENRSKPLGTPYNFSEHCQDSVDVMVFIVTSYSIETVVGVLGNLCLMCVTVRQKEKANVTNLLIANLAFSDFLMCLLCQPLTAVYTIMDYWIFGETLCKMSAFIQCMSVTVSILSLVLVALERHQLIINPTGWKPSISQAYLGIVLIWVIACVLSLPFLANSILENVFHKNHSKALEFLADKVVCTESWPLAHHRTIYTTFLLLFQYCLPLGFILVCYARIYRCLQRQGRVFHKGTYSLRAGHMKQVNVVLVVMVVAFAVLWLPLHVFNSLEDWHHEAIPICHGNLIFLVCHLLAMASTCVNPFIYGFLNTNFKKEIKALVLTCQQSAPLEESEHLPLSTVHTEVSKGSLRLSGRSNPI

Question: For B1, which IC50 is on record?
Answer: 0.21 nM

Question: For B2, which IC50 is on record?
Answer: 0.062 nM

Question: For B3, which IC50 is on record?
Answer: 0.218 nM

Question: With B4 as the binder, how does the IC50 read?
Answer: 0.159 nM

Question: How did the IC50 turn out when B5 was run?
Answer: 0.106 nM

Question: Which IC50 does the source give for B6 here?
Answer: 0.137 nM

Question: For B7, which IC50 is on record?
Answer: 0.11 nM

Question: With B8 as the binder, how does the IC50 read?
Answer: 0.107 nM

Question: Which IC50 does the source give for B9 here?
Answer: 0.174 nM

Question: B10 was tested. Which IC50 did it give?
Answer: 0.064 nM

Question: B11 was tested. Which IC50 did it give?
Answer: 0.073 nM

Question: Which IC50 does the source give for B12 here?
Answer: 0.14 nM

Question: With B13 as the binder, how does the IC50 read?
Answer: 0.076 nM

Question: With B14 as the binder, how does the IC50 read?
Answer: 0.073 nM

Question: How did the IC50 turn out when B15 was run?
Answer: 0.097 nM

Question: B16 was tested. Which IC50 did it give?
Answer: 0.102 nM

Question: For B17, which IC50 is on record?
Answer: 0.158 nM

Question: With B18 as the binder, how does the IC50 read?
Answer: 0.153 nM

Question: How did the IC50 turn out when B19 was run?
Answer: 0.173 nM

Question: With B20 as the binder, how does the IC50 read?
Answer: 0.098 nM

Question: How did the IC50 turn out when B21 was run?
Answer: 0.131 nM

Question: How did the IC50 turn out when B22 was run?
Answer: 0.105 nM

Question: Which IC50 does the source give for B23 here?
Answer: 0.124 nM

Question: With B24 as the binder, how does the IC50 read?
Answer: 0.109 nM

Question: Which IC50 does the source give for B25 here?
Answer: 0.121 nM

Question: For B26, which IC50 is on record?
Answer: 0.101 nM

Question: With B27 as the binder, how does the IC50 read?
Answer: 0.084 nM

Question: B28 was tested. Which IC50 did it give?
Answer: 0.126 nM

Question: For B29, which IC50 is on record?
Answer: 0.097 nM

Question: Which IC50 does the source give for B30 here?
Answer: 0.055 nM

Question: For B31, which IC50 is on record?
Answer: 0.067 nM

Question: Which IC50 does the source give for B32 here?
Answer: 0.172 nM

Question: B33 was tested. Which IC50 did it give?
Answer: 0.121 nM

Question: B34 was tested. Which IC50 did it give?
Answer: 0.171 nM

Question: With B35 as the binder, how does the IC50 read?
Answer: 0.091 nM

Question: How did the IC50 turn out when B36 was run?
Answer: 0.099 nM

Question: With B37 as the binder, how does the IC50 read?
Answer: 0.114 nM

Question: For B38, which IC50 is on record?
Answer: 0.046 nM

Question: B39 was tested. Which IC50 did it give?
Answer: 0.088 nM

Question: B40 was tested. Which IC50 did it give?
Answer: 0.101 nM

Question: B41 was tested. Which IC50 did it give?
Answer: 0.079 nM

Question: For B42, which IC50 is on record?
Answer: 0.099 nM

Question: How did the IC50 turn out when B43 was run?
Answer: 0.036 nM

Question: B44 was tested. Which IC50 did it give?
Answer: 0.08 nM

Question: With B45 as the binder, how does the IC50 read?
Answer: 0.091 nM

Question: B46 was tested. Which IC50 did it give?
Answer: 0.153 nM

Question: Which IC50 does the source give for B47 here?
Answer: 0.055 nM

Question: With B48 as the binder, how does the IC50 read?
Answer: 0.131 nM

Question: B49 was tested. Which IC50 did it give?
Answer: 0.065 nM

Question: Which IC50 does the source give for B50 here?
Answer: 0.076 nM

Question: B51 was tested. Which IC50 did it give?
Answer: 0.136 nM

Question: B52 was tested. Which IC50 did it give?
Answer: 0.213 nM

Question: With B53 as the binder, how does the IC50 read?
Answer: 0.1 nM

Question: Which IC50 does the source give for B54 here?
Answer: 0.117 nM

Question: With B55 as the binder, how does the IC50 read?
Answer: 0.151 nM

Question: B56 was tested. Which IC50 did it give?
Answer: 0.171 nM

Biological target: T1, human Y4 receptor
Test: 125I-PP displacement
Remark: another data set of the same source

Question: Which IC50 does the source give for B57 here?
Answer: 0.083 nM

Question: Which IC50 does the source give for B58 here?
Answer: 0.049 nM

Question: With B59 as the binder, how does the IC50 read?
Answer: 0.114 nM

Question: Which IC50 does the source give for B60 here?
Answer: 0.092 nM
